From the Immune Epitope Database (IEDB)

Experiments:
[1] = biological target: HLA-B*18:01; test: IEDB peptide-MHC binding, purified MHC/competitive/radioactivity; filed as Kd, often an IC50 or EC50 that approximates it; ≥ and ≤ were set here for values at or beyond the usual limits of such assays
[2] = biological target: HLA-B*44:03; test: as above
[3] = biological target: HLA-B*40:01; test: as above
[4] = biological target: HLA-B*40:02; test: as above
[5] = biological target: HLA-B*45:01; test: as above
[6] = biological target: HLA-B*44:02; test: as above
[7] = biological target: HLA-A*03:01; test: IEDB peptide-MHC binding, purified MHC/direct/fluorescence; filed as Kd, often an IC50 or EC50 that approximates it; ≥ and ≤ were set here for values at or beyond the usual limits of such assays; settings: source organism: Reston ebolavirus - Reston
[8] = biological target: HLA-B*15:01; test: IEDB peptide-MHC binding, purified MHC/competitive/fluorescence; filed as Kd, often an IC50 or EC50 that approximates it; ≥ and ≤ were set here for values at or beyond the usual limits of such assays; settings: source organism: Reston ebolavirus
[9] = biological target: HLA-B*51:01; test: as above; settings: source organism: Reston ebolavirus
[10] = biological target: HLA-B*18:01; test: as above; settings: source organism: Reston ebolavirus
[11] = biological target: HLA-B*46:01; test: as above; settings: source organism: Reston ebolavirus
[12] = biological target: HLA-B*57:01; test: as above; settings: source organism: Reston ebolavirus
[13] = biological target: HLA-A*69:01; test: as above; settings: source organism: Reston ebolavirus
[14] = biological target: HLA-A*02:01; test: as above
[15] = biological target: HLA-B*39:01; test: as above; settings: source organism: Reston ebolavirus
[16] = biological target: HLA-B*27:03; test: as above; settings: source organism: Reston ebolavirus
[17] = biological target: HLA-A*26:01; test: as above; settings: source organism: Reston ebolavirus
[18] = biological target: HLA-B*48:01; test: IEDB peptide-MHC binding, purified MHC/direct/fluorescence; filed as Kd, often an IC50 or EC50 that approximates it; ≥ and ≤ were set here for values at or beyond the usual limits of such assays
[19] = biological target: HLA-A*02:06; test: IEDB peptide-MHC binding, purified MHC/competitive/radioactivity; filed as Kd, often an IC50 or EC50 that approximates it; ≥ and ≤ were set here for values at or beyond the usual limits of such assays; settings: source organism: Vaccinia virus WR
[20] = biological target: HLA-B*15:03; test: as above
[21] = biological target: HLA-A*02:03; test: as above; settings: source organism: Vaccinia virus WR
[22] = biological target: HLA-A*02:02; test: as above; settings: source organism: Vaccinia virus WR
[23] = biological target: HLA-B*15:01; test: as above
[24] = biological target: HLA-B*08:01; test: as above
[25] = biological target: HLA-A*32:01; test: as above
[26] = biological target: HLA-A*30:01; test: as above
[27] = biological target: HLA-B*27:05; test: IEDB peptide-MHC binding, purified MHC/direct/fluorescence; filed as Kd, often an IC50 or EC50 that approximates it; ≥ and ≤ were set here for values at or beyond the usual limits of such assays; settings: source organism: West Nile virus
[28] = biological target: HLA-A*02:12; test: IEDB peptide-MHC binding, purified MHC/competitive/fluorescence; filed as Kd, often an IC50 or EC50 that approximates it; ≥ and ≤ were set here for values at or beyond the usual limits of such assays; settings: source organism: Toxoplasma gondii
[29] = source organism: Mammarenavirus machupoense
[30] = source organism: Mammarenavirus guanaritoense
[31] = source organism: SARS coronavirus Tor2
[32] = source organism: Lymphocytic choriomeningitis virus (strain Armstrong)
[33] = source organism: Mammarenavirus choriomeningitidis
[34] = source organism: Vaccinia virus WR
[35] = source organism: Mammarenavirus whitewaterense
[36] = source organism: Mammarenavirus lassaense

Sequence: EDIAMGYVV
- Kd [1, 29]: 1500 nM
- Kd [2, 29]: ≥ 38400 nM
- Kd [3, 29]: ≥ 45300 nM
- Kd [4, 29]: 69.8 nM
- Kd [5, 29]: 2260 nM
- Kd [6, 29]: 10300 nM

Sequence: ADSLDFTQV
- Kd [1, 30]: ≥ 66500 nM
- Kd [2, 30]: ≥ 33300 nM
- Kd [3, 30]: ≥ 64900 nM
- Kd [4, 30]: 5850 nM
- Kd [5, 30]: 6120 nM
- Kd [6, 30]: 12600 nM

Sequence: ALYEENALK
- Kd [7]: 1840 nM
- Kd [8]: ≥ 20000 nM
- Kd [9]: ≥ 20000 nM
- Kd [10]: ≥ 20000 nM
- Kd [11]: ≥ 20000 nM
- Kd [12]: ≥ 20000 nM
- Kd [13]: ≥ 20000 nM
- Kd ([14]; source organism: Reston ebolavirus): ≥ 20000 nM
- Kd [15]: ≥ 20000 nM
- Kd [16]: ≥ 20000 nM
- Kd [17]: ≥ 20000 nM

Sequence: WEIQQVVDA
- Kd [1, 31]: 4920 nM
- Kd [2, 31]: 9040 nM
- Kd [3, 31]: 1030 nM
- Kd [4, 31]: 54.3 nM
- Kd [5, 31]: 135 nM
- Kd [6, 31]: ≥ 30300 nM

Sequence: HMPAARPEL
- Kd ([18]; source organism: Giardia lamblia ATCC 50803): 593 nM

Sequence: REPVDQKQF
- Kd [1, 32]: ≥ 47600 nM
- Kd [2, 32]: 7920 nM
- Kd [3, 32]: ≥ 40500 nM
- Kd [4, 32]: 11900 nM
- Kd [5, 32]: ≥ 77700 nM
- Kd [6, 32]: 1630 nM

Sequence: NDSILSHNF
- Kd [1, 33]: 423 nM
- Kd [2, 33]: 11400 nM
- Kd [3, 33]: ≥ 76100 nM
- Kd [4, 33]: 5930 nM
- Kd [5, 33]: ≥ 77700 nM
- Kd [6, 33]: 182 nM

Sequence: KMAVEVGSI
- Kd [19]: 119 nM
- Kd [20, 34]: 335 nM
- Kd [21]: 2.78 nM
- Kd [22]: 30.8 nM

Sequence: MVKNNKIQK
- Kd [23, 34]: 18300 nM
- Kd [24, 34]: 17800 nM
- Kd [25, 34]: ≥ 77800 nM
- Kd [20, 34]: 9550 nM
- Kd [26, 34]: 11.8 nM

Sequence: KELSPRWYFY
- Kd [1, 31]: 6750 nM
- Kd [2, 31]: 12.6 nM
- Kd [3, 31]: 8570 nM
- Kd [4, 31]: 309 nM
- Kd [5, 31]: 4230 nM
- Kd [6, 31]: 9.79 nM

Sequence: METMFFIRF
- Kd [20, 34]: 52.6 nM

Sequence: FISRNKNIF
- Kd [20, 34]: 4030 nM

Sequence: VELVAEMDG
- Kd [1, 31]: ≥ 28300 nM
- Kd [2, 31]: ≥ 24500 nM
- Kd [3, 31]: ≥ 76200 nM
- Kd [4, 31]: ≥ 77300 nM
- Kd [5, 31]: ≥ 29400 nM
- Kd [6, 31]: 10600 nM

Sequence: QIVAYFSEF
- Kd [23, 34]: 1.38 nM
- Kd [24, 34]: 1930 nM
- Kd [25, 34]: 70.4 nM
- Kd [20, 34]: 7.85 nM
- Kd [26, 34]: 12700 nM

Sequence: RDLVISDSS
- Kd [1, 30]: ≥ 77500 nM
- Kd [2, 30]: ≥ 35800 nM
- Kd [3, 30]: ≥ 53400 nM
- Kd [4, 30]: 2490 nM
- Kd [5, 30]: ≥ 77700 nM
- Kd [6, 30]: ≥ 77900 nM

Sequence: FELTSMKYF
- Kd [1, 31]: 3720 nM
- Kd [2, 31]: 161 nM
- Kd [3, 31]: 10700 nM
- Kd [4, 31]: 2320 nM
- Kd [5, 31]: ≥ 33900 nM
- Kd [6, 31]: 92.7 nM

Sequence: LDIQKCGEL
- Kd [1, 35]: ≥ 53200 nM
- Kd [2, 35]: ≥ 78100 nM
- Kd [3, 35]: ≥ 46700 nM
- Kd [4, 35]: 9660 nM
- Kd [5, 35]: ≥ 56900 nM
- Kd [6, 35]: ≥ 77900 nM

Sequence: ISESRFQSL
- Kd [23, 34]: 2890 nM
- Kd [24, 34]: 39.6 nM
- Kd [25, 34]: 11100 nM
- Kd [20, 34]: 147 nM
- Kd [26, 34]: 5920 nM

Sequence: YQSLSPPPF
- Kd [23, 34]: 5050 nM
- Kd [24, 34]: ≥ 33400 nM
- Kd [25, 34]: 4740 nM
- Kd [20, 34]: 0.0611 nM
- Kd [26, 34]: 0.503 nM

Sequence: TERLKLFAA
- Kd [1, 31]: 301 nM
- Kd [2, 31]: ≥ 41200 nM
- Kd [3, 31]: 19200 nM
- Kd [4, 31]: 24 nM
- Kd [5, 31]: 4.73 nM
- Kd [6, 31]: ≥ 65800 nM

Sequence: PEFDWILGW
- Kd [1, 30]: 5120 nM
- Kd [2, 30]: 27.4 nM
- Kd [3, 30]: ≥ 76100 nM
- Kd [4, 30]: ≥ 22000 nM
- Kd [5, 30]: ≥ 77700 nM
- Kd [6, 30]: 212 nM

Sequence: FKVTTRRSI
- Kd [20, 34]: 4.57 nM

Sequence: WSIYLSLHY
- Kd [23, 34]: 48.2 nM
- Kd [24, 34]: 2720 nM
- Kd [25, 34]: ≥ 29000 nM
- Kd [20, 34]: 8.85 nM
- Kd [26, 34]: 17000 nM

Sequence: VLFEVFVVF
- Kd [23, 34]: 2.85 nM
- Kd [24, 34]: 5110 nM
- Kd [25, 34]: 7.8 nM
- Kd [20, 34]: 4.85 nM
- Kd [26, 34]: ≥ 24400 nM

Sequence: VQTIVFIWF
- Kd ([20]; source organism: Vaccinia virus): 306 nM

Sequence: YRLRGEERK
- Kd [27]: 883 nM
- Kd ([18]; source organism: West Nile virus): ≥ 20000 nM

Sequence: SEMVMCGGSL
- Kd [1, 31]: 355 nM
- Kd [2, 31]: 12.3 nM
- Kd [3, 31]: 0.475 nM
- Kd [4, 31]: 1020 nM
- Kd [5, 31]: 16.3 nM
- Kd [6, 31]: 2.24 nM

Sequence: RREKRSVAL
- Kd ([24]; source organism: Dengue virus 2 Jamaica/1409/1983): 40.9 nM
- Kd ([18]; source organism: Dengue virus): 842 nM

Sequence: LLKDRNELF
- Kd [23, 34]: 1.82 nM
- Kd [24, 34]: 40.6 nM
- Kd [25, 34]: 3070 nM
- Kd [20, 34]: 15.7 nM
- Kd [26, 34]: 108 nM

Sequence: AEIRASANLA
- Kd [1, 31]: 8130 nM
- Kd [2, 31]: 98.6 nM
- Kd [3, 31]: 202 nM
- Kd [4, 31]: 2250 nM
- Kd [5, 31]: 4.63 nM
- Kd [6, 31]: 80.1 nM

Sequence: SLNECIISF
- Kd [20, 34]: 66.9 nM

Sequence: SMVQILSSL
- Kd ([20]; source organism: Vaccinia virus Copenhagen): ≥ 77200 nM

Sequence: NLMVNEQAA
- Kd [28]: 18.9 nM
- Kd ([14]; source organism: Toxoplasma gondii): ≥ 20000 nM

Sequence: LSINSSFYF
- Kd ([23]; source organism: Variola virus): 1.02 nM
- Kd ([24]; source organism: Variola virus): 3160 nM
- Kd ([25]; source organism: Variola virus): 2960 nM
- Kd ([20]; source organism: Variola virus): 4.81 nM
- Kd ([26]; source organism: Variola virus): 970 nM

Sequence: VEYPIIGDEL
- Kd [1, 31]: 15200 nM
- Kd [2, 31]: 282 nM
- Kd [3, 31]: 5.04 nM
- Kd [4, 31]: 500 nM
- Kd [5, 31]: 2230 nM
- Kd [6, 31]: 4810 nM

Sequence: IEEIMNIVLI
- Kd [1, 36]: 3150 nM
- Kd [2, 36]: 445 nM
- Kd [3, 36]: 1810 nM
- Kd [4, 36]: 98.4 nM
- Kd [5, 36]: 1300 nM
- Kd [6, 36]: 151 nM

Sequence: SEILKTLGF
- Kd [1, 29]: 655 nM
- Kd [2, 29]: 14.1 nM
- Kd [3, 29]: 1000 nM
- Kd [4, 29]: 165 nM
- Kd [5, 29]: 1610 nM
- Kd [6, 29]: 4.21 nM

Sequence: TMKERRPIL
- Kd [23, 34]: 808 nM
- Kd [24, 34]: 1.83 nM
- Kd [25, 34]: 2210 nM
- Kd [20, 34]: 397 nM
- Kd [26, 34]: 4730 nM
